Assay results published in patent US10357549B2, “Pigment epithelium-derived factor (PEDF) and peptide derivatives thereof for use in osteoblast differentiation and bone growth” (Yale University, priority 2014, dated 2019).

Assays:
[1] = system: 3T3-L1 adipocyte precursors; test: PPARγ expression in 3T3-L1 adipocyte precursors with vector or LRP6 shRNA; format: cell-based, mouse; details: PEDF 10 nM, 48 h
Method: Immunoblotting was performed as described previously (Schmitz et al., 2011, Am J Pathol, 179: 2990-2999). Proteins were separated by 10% SDS-PAGE on gradient gels (Bio-Rad, Hercules, Calif., USA). Antibodies against nonphosphorylated β-catenin, total β-catenin, phospho-LRP6 (serine 1490), total LRP6 (Cell Signaling Technologies, Danvers, Mass., USA), and alkaline phosphatase (Developmental Studies Hybridoma Bank, University of Iowa, Iowa City, Iowa, USA). To assess signaling through the Wnt coreceptor LRP6, 3T3 adipocyte precursors with vector and LRP6-KO shRNA were used (Liu et al., 2012, J Biol Chem, 287: 7213-7223). On confluence, cells were serum starved for 48 h, and then changed to DMEM with 10% FCS (d 0). PEDF (10 nM) was added on d 0, and cells were harvested after 48 h. Knockdown was confirmed by immunoblotting for total LRP6. β-actin (Sigma) was used as a loading control.

PEDF knock-out mice = test: PEDF i.p. treatment of young and old PEDF KO mice, trabecular bone; format: in vivo, mouse; details: young (200 ng i.p. every third day, two weeks) and old (25 μg/kg i.p. every third day, 4 weeks) PEDF KO mice
Source text: A ScanCo μCT 35 scanner (ScanCo Medical AG, Brüttisellen, Switzerland; Yale Center Core for Musculoskeletal Disorders) was used to assess the distal femur for trabecular and cortical bone morphology from 21-d-old WT and PEDF-KO mice in a blinded manner. Axial, sagittal, and coronal images were obtained at standardized sites, and measures of trabecular and total bone volumes and other parameters of bone density were obtained (Bouxsein et al., 2010, J Bone Miner Res, 25: 1468-1486). For histology, femurs and tibiae of 14- and 26-d-old mice were dissected, cleaned, and fixed in 70% ethanol, then further dehydrated through graded ethanols, cleared in toluene, and embedded in methyl methacrylate (MMA). After polymerization, MMA blocks were removed from the mold, cut to size, sanded, and polished on a Buehler Metasery (Buehler, Lake Bluff, Ill., USA). Longitudinal sections of […] were cut using a Reichert-Jung RM 2165 microtome (Leica Microsystems, Jena, Germany) using a D-profile tungsten carbide knife, mounted on charged slides, and stained with either Goldner's trichrome or Toluidine Blue O (pH 3.7).
Experiments were conducted to examine the effects of PEDF treatment on bone in young (44 days) and old (6 month) PEDF knock-out mice. PEDF (200 ng) was delivered i.p. every third day for two weeks in young mice. […]

B1: Pigment epithelium-derived factor (protein)
chain: QNPASPPEEGSPDPDSTGALVEEEDPFFKVPVNKLAAAVSNFGYDLYRVRSSTSPTTNVLLSPLSVATALSALSLGAEQRTESIIHRALYYDLISSPDIHGTYKELLDTVTAPQKNLKSASRIVFEKKLRIKSSFVAPLEKSYGTRPRVLTGNPRLDLQEINNWVQAQMKGKLARSTKEIPDEISILLLGVAHFKGQWVTKFDSRKTSLEDFYLDEERTVRVPMMSDPKAVLRYGLDSDLSCKIAQLPLTGSMSIIFFLPLKVTQNLTLIEESLTSEFIHDIDRELKTVQAVLTVPKLKLSYEGEVTKSLQEMKLQSLFDSPDFSKITGKPIKLTQVEHRAGFEWNEDGAGTTPSPGLQPAHLTFPLDYHLNQPFIFVLRDTDTGALLFIGKILDPRGP
notes: Full-length recombinant human PEDF generated in HEK cells; 50-kDa secreted protein of the SERPIN superfamily
With B1 the “PPARγ expression in cells with LRP6 knockdown” value [1] was “induced PPARγ expression”, the “PPARγ expression in control (vector) cells” value [1] was “significantly inhibited PPARγ expression” and the “trabecular bone volume (BV)” value (PEDF knock-out mice) was “increases”. The trabecular thickness (PEDF knock-out mice) was “increases”.
